Sequences and labels used below:
B1: humanized h18E4-19 antibody (antibody, V domains shown)
VH: EVQLLESGGGLVQPGGSLRLSCAASGFSFNNYWIIWIRQAPGKGLEWVAAIYSPSGDIKYYADWAKGRFTVSKDNSKNTVYLQMNSLRAEDTAVYYCARELSGSSYEGYFESWGQGTLVTVSS
VL: DIQLTQSPSTLSASVGDRVTITCRSSQSVYGHNWLAWYQQKPGKAPKLLMYRASNLASGVPSRFSGSGSGTEFTLTISSVQPDDFATYYCQGYYSGGSYAFGGGTKVEIK
notes: the control is hIgG1; also called hu18E4-19; Anti-CD38
B2: Anti-CD38 HC_Y100dA (antibody, V domains shown)
VH: EVQLLESGGGLVQPGGSLRLSCAASGFSFNNYWIIWIRQAPGKGLEWVAAIYSPSGDIKYYADWAKGRFTVSKDNSKNTVYLQMNSLRAEDTAVYYCARELSGSSYEGAFESWGQGTLVTVSS
VL: DIQLTQSPSTLSASVGDRVTITCRSSQSVYGHNWLAWYQQKPGKAPKLLMYRASNLASGVPSRFSGSGSGTEFTLTISSVQPDDFATYYCQGYYSGGSYAFGGGTKVEIK
notes: Alanine variant of h18E4-19 with the parent VL
B3: Anti-CD38 HC_E100bA (antibody, V domains shown)
VH: EVQLLESGGGLVQPGGSLRLSCAASGFSFNNYWIIWIRQAPGKGLEWVAAIYSPSGDIKYYADWAKGRFTVSKDNSKNTVYLQMNSLRAEDTAVYYCARELSGSSYAGYFESWGQGTLVTVSS
VL: DIQLTQSPSTLSASVGDRVTITCRSSQSVYGHNWLAWYQQKPGKAPKLLMYRASNLASGVPSRFSGSGSGTEFTLTISSVQPDDFATYYCQGYYSGGSYAFGGGTKVEIK
notes: as for B2
B4: Anti-CD38 HC_L96A (antibody, V domains shown)
VH: EVQLLESGGGLVQPGGSLRLSCAASGFSFNNYWIIWIRQAPGKGLEWVAAIYSPSGDIKYYADWAKGRFTVSKDNSKNTVYLQMNSLRAEDTAVYYCAREASGSSYEGYFESWGQGTLVTVSS
VL: DIQLTQSPSTLSASVGDRVTITCRSSQSVYGHNWLAWYQQKPGKAPKLLMYRASNLASGVPSRFSGSGSGTEFTLTISSVQPDDFATYYCQGYYSGGSYAFGGGTKVEIK
notes: as for B2
B5: Anti-CD38 LC_S93A (antibody, V domains shown)
VH: EVQLLESGGGLVQPGGSLRLSCAASGFSFNNYWIIWIRQAPGKGLEWVAAIYSPSGDIKYYADWAKGRFTVSKDNSKNTVYLQMNSLRAEDTAVYYCARELSGSSYEGYFESWGQGTLVTVSS
VL: DIQLTQSPSTLSASVGDRVTITCRSSQSVYGHNWLAWYQQKPGKAPKLLMYRASNLASGVPSRFSGSGSGTEFTLTISSVQPDDFATYYCQGYYAGGSYAFGGGTKVEIK
notes: Alanine variant of h18E4-19 with the parent VH
B6: Anti-CD38 LC_Y91A (antibody, V domains shown)
VH: EVQLLESGGGLVQPGGSLRLSCAASGFSFNNYWIIWIRQAPGKGLEWVAAIYSPSGDIKYYADWAKGRFTVSKDNSKNTVYLQMNSLRAEDTAVYYCARELSGSSYEGYFESWGQGTLVTVSS
VL: DIQLTQSPSTLSASVGDRVTITCRSSQSVYGHNWLAWYQQKPGKAPKLLMYRASNLASGVPSRFSGSGSGTEFTLTISSVQPDDFATYYCQGAYSGGSYAFGGGTKVEIK
notes: as for B5
B7: Anti-CD38 HC_F100eA (antibody, V domains shown)
VH: EVQLLESGGGLVQPGGSLRLSCAASGFSFNNYWIIWIRQAPGKGLEWVAAIYSPSGDIKYYADWAKGRFTVSKDNSKNTVYLQMNSLRAEDTAVYYCARELSGSSYEGYAESWGQGTLVTVSS
VL: DIQLTQSPSTLSASVGDRVTITCRSSQSVYGHNWLAWYQQKPGKAPKLLMYRASNLASGVPSRFSGSGSGTEFTLTISSVQPDDFATYYCQGYYSGGSYAFGGGTKVEIK
notes: as for B2
B8: Anti-CD38 LC_S95aA (antibody, V domains shown)
VH: EVQLLESGGGLVQPGGSLRLSCAASGFSFNNYWIIWIRQAPGKGLEWVAAIYSPSGDIKYYADWAKGRFTVSKDNSKNTVYLQMNSLRAEDTAVYYCARELSGSSYEGYFESWGQGTLVTVSS
VL: DIQLTQSPSTLSASVGDRVTITCRSSQSVYGHNWLAWYQQKPGKAPKLLMYRASNLASGVPSRFSGSGSGTEFTLTISSVQPDDFATYYCQGYYSGGAYAFGGGTKVEIK
notes: as for B5
B9: Anti-CD38 HC_S100A (antibody, V domains shown)
VH: EVQLLESGGGLVQPGGSLRLSCAASGFSFNNYWIIWIRQAPGKGLEWVAAIYSPSGDIKYYADWAKGRFTVSKDNSKNTVYLQMNSLRAEDTAVYYCARELSGSAYEGYFESWGQGTLVTVSS
VL: DIQLTQSPSTLSASVGDRVTITCRSSQSVYGHNWLAWYQQKPGKAPKLLMYRASNLASGVPSRFSGSGSGTEFTLTISSVQPDDFATYYCQGYYSGGSYAFGGGTKVEIK
notes: as for B2
B10: Anti-CD38 LC_Q89A (antibody, V domains shown)
VH: EVQLLESGGGLVQPGGSLRLSCAASGFSFNNYWIIWIRQAPGKGLEWVAAIYSPSGDIKYYADWAKGRFTVSKDNSKNTVYLQMNSLRAEDTAVYYCARELSGSSYEGYFESWGQGTLVTVSS
VL: DIQLTQSPSTLSASVGDRVTITCRSSQSVYGHNWLAWYQQKPGKAPKLLMYRASNLASGVPSRFSGSGSGTEFTLTISSVQPDDFATYYCAGYYSGGSYAFGGGTKVEIK
notes: Alanine variant of h18E4-19 with the parent VH; also called Anti-CD38med
B11: Anti-CD38 HC_S99A (antibody, V domains shown)
VH: EVQLLESGGGLVQPGGSLRLSCAASGFSFNNYWIIWIRQAPGKGLEWVAAIYSPSGDIKYYADWAKGRFTVSKDNSKNTVYLQMNSLRAEDTAVYYCARELSGASYEGYFESWGQGTLVTVSS
VL: DIQLTQSPSTLSASVGDRVTITCRSSQSVYGHNWLAWYQQKPGKAPKLLMYRASNLASGVPSRFSGSGSGTEFTLTISSVQPDDFATYYCQGYYSGGSYAFGGGTKVEIK
notes: as for B2
B12: Anti-CD38 HC_S97A (antibody, V domains shown)
VH: EVQLLESGGGLVQPGGSLRLSCAASGFSFNNYWIIWIRQAPGKGLEWVAAIYSPSGDIKYYADWAKGRFTVSKDNSKNTVYLQMNSLRAEDTAVYYCARELAGSSYEGYFESWGQGTLVTVSS
VL: DIQLTQSPSTLSASVGDRVTITCRSSQSVYGHNWLAWYQQKPGKAPKLLMYRASNLASGVPSRFSGSGSGTEFTLTISSVQPDDFATYYCQGYYSGGSYAFGGGTKVEIK
notes: as for B2
B13: Anti-CD38 HC_G100cA (antibody, V domains shown)
VH: EVQLLESGGGLVQPGGSLRLSCAASGFSFNNYWIIWIRQAPGKGLEWVAAIYSPSGDIKYYADWAKGRFTVSKDNSKNTVYLQMNSLRAEDTAVYYCARELSGSSYEAYFESWGQGTLVTVSS
VL: DIQLTQSPSTLSASVGDRVTITCRSSQSVYGHNWLAWYQQKPGKAPKLLMYRASNLASGVPSRFSGSGSGTEFTLTISSVQPDDFATYYCQGYYSGGSYAFGGGTKVEIK
notes: as for B2
B14: Anti-CD38 HC_G98A (antibody, V domains shown)
VH: EVQLLESGGGLVQPGGSLRLSCAASGFSFNNYWIIWIRQAPGKGLEWVAAIYSPSGDIKYYADWAKGRFTVSKDNSKNTVYLQMNSLRAEDTAVYYCARELSASSYEGYFESWGQGTLVTVSS
VL: DIQLTQSPSTLSASVGDRVTITCRSSQSVYGHNWLAWYQQKPGKAPKLLMYRASNLASGVPSRFSGSGSGTEFTLTISSVQPDDFATYYCQGYYSGGSYAFGGGTKVEIK
notes: as for B2
B15: Anti-CD38 HC_E101A (antibody, V domains shown)
VH: EVQLLESGGGLVQPGGSLRLSCAASGFSFNNYWIIWIRQAPGKGLEWVAAIYSPSGDIKYYADWAKGRFTVSKDNSKNTVYLQMNSLRAEDTAVYYCARELSGSSYEGYFASWGQGTLVTVSS
VL: DIQLTQSPSTLSASVGDRVTITCRSSQSVYGHNWLAWYQQKPGKAPKLLMYRASNLASGVPSRFSGSGSGTEFTLTISSVQPDDFATYYCQGYYSGGSYAFGGGTKVEIK
notes: as for B2
B16: Anti-CD38 HC_E95A (antibody, V domains shown)
VH: EVQLLESGGGLVQPGGSLRLSCAASGFSFNNYWIIWIRQAPGKGLEWVAAIYSPSGDIKYYADWAKGRFTVSKDNSKNTVYLQMNSLRAEDTAVYYCARALSGSSYEGYFESWGQGTLVTVSS
VL: DIQLTQSPSTLSASVGDRVTITCRSSQSVYGHNWLAWYQQKPGKAPKLLMYRASNLASGVPSRFSGSGSGTEFTLTISSVQPDDFATYYCQGYYSGGSYAFGGGTKVEIK
notes: as for B2
B17: Anti-CD38 LC_G94A (antibody, V domains shown)
VH: EVQLLESGGGLVQPGGSLRLSCAASGFSFNNYWIIWIRQAPGKGLEWVAAIYSPSGDIKYYADWAKGRFTVSKDNSKNTVYLQMNSLRAEDTAVYYCARELSGSSYEGYFESWGQGTLVTVSS
VL: DIQLTQSPSTLSASVGDRVTITCRSSQSVYGHNWLAWYQQKPGKAPKLLMYRASNLASGVPSRFSGSGSGTEFTLTISSVQPDDFATYYCQGYYSAGSYAFGGGTKVEIK
notes: Alanine variant of h18E4-19 with the parent VH; also called Anti-CD38low
B18: Anti-CD38 HC_Y100aA (antibody, V domains shown)
VH: EVQLLESGGGLVQPGGSLRLSCAASGFSFNNYWIIWIRQAPGKGLEWVAAIYSPSGDIKYYADWAKGRFTVSKDNSKNTVYLQMNSLRAEDTAVYYCARELSGSSAEGYFESWGQGTLVTVSS
VL: DIQLTQSPSTLSASVGDRVTITCRSSQSVYGHNWLAWYQQKPGKAPKLLMYRASNLASGVPSRFSGSGSGTEFTLTISSVQPDDFATYYCQGYYSGGSYAFGGGTKVEIK
notes: as for B2
B19: Anti-CD38 LC_G95A (antibody, V domains shown)
VH: EVQLLESGGGLVQPGGSLRLSCAASGFSFNNYWIIWIRQAPGKGLEWVAAIYSPSGDIKYYADWAKGRFTVSKDNSKNTVYLQMNSLRAEDTAVYYCARELSGSSYEGYFESWGQGTLVTVSS
VL: DIQLTQSPSTLSASVGDRVTITCRSSQSVYGHNWLAWYQQKPGKAPKLLMYRASNLASGVPSRFSGSGSGTEFTLTISSVQPDDFATYYCQGYYSGASYAFGGGTKVEIK
notes: as for B5
B20: Anti-CD38 HC_S102A (antibody, V domains shown)
VH: EVQLLESGGGLVQPGGSLRLSCAASGFSFNNYWIIWIRQAPGKGLEWVAAIYSPSGDIKYYADWAKGRFTVSKDNSKNTVYLQMNSLRAEDTAVYYCARELSGSSYEGYFEAWGQGTLVTVSS
VL: DIQLTQSPSTLSASVGDRVTITCRSSQSVYGHNWLAWYQQKPGKAPKLLMYRASNLASGVPSRFSGSGSGTEFTLTISSVQPDDFATYYCQGYYSGGSYAFGGGTKVEIK
notes: as for B2
B21: Anti-CD38 LC_G90A (antibody, V domains shown)
VH: EVQLLESGGGLVQPGGSLRLSCAASGFSFNNYWIIWIRQAPGKGLEWVAAIYSPSGDIKYYADWAKGRFTVSKDNSKNTVYLQMNSLRAEDTAVYYCARELSGSSYEGYFESWGQGTLVTVSS
VL: DIQLTQSPSTLSASVGDRVTITCRSSQSVYGHNWLAWYQQKPGKAPKLLMYRASNLASGVPSRFSGSGSGTEFTLTISSVQPDDFATYYCQAYYSGGSYAFGGGTKVEIK
notes: as for B5

This experiment concerns the target T1, human CD38 extracellular domain (hCD38, recombinant, with AviTag) (human, UniProt P28907 43-300).
T1 construct: also called recombinant CD38; huCD38
In words: ELISA on human CD38 ECD, EC50 class. In general terms: In an ELISA, binding on a coated surface is turned into a signal by an enzyme label.
B1: the concentration for a half-maximal effect (EC50) – broadly, the concentration needed to bring the measured effect to its halfway point – lay within 0.02 to 0.1 nM. For B2, the EC50 was above 0.5 nM. B3: the EC50 was above 0.5 nM. For B4 the value was 0.02 to 0.1 nM; for B5, 0.1 to 0.5 nM. B6: the EC50 is above 0.5 nM.

Turning to B7, the EC50 lay in the range of 0.02 to 0.1 nM.

Regarding B8, the EC50 lay within 0.02 to 0.1 nM. For B9 the value was 0.02 to 0.1 nM; for B10, 0.02 to 0.1 nM; for B11, 0.02 to 0.1 nM. For B12 the value was 0.02 to 0.1 nM. For B13 the value was 0.1 to 0.5 nM; for B14, 0.02 to 0.1 nM. Consider B15, for which the concentration for a half-maximal effect (EC50) is 0.02 to 0.1 nM. For B16 the value was above 0.5 nM; for B17, above 0.5 nM; for B18, 0.02 to 0.1 nM. For B19 the value was 0.02 to 0.1 nM; for B20, 0.02 to 0.1 nM; for B21, 0.1 to 0.5 nM.

Source of the values: patent publication US20230183381A1 (VIRTUOSO BINCO, published 2023).
